Results from US20160159921A1.

Tests used:
FcγRIIIa (F) variant = FcγRIIIa (F) variant (UniProt P08637); experiment: SPR (ProteOn XPR36), antibody captured on immobilized HER-2, FcγR as analyte, 1:1 Langmuir fit
FcγRIIb = FcγRIIb (UniProt P31994); experiment: as above
Sequence of UniProt P31994 (P31994 43-217 limits assumed): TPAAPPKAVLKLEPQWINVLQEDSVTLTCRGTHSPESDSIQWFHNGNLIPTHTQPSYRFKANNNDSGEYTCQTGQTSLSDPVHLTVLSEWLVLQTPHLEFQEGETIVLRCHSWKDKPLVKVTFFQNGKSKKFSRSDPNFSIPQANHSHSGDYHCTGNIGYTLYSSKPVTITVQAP

Sequence of UniProt P08637 (P08637 17-208 limits assumed, change not shown): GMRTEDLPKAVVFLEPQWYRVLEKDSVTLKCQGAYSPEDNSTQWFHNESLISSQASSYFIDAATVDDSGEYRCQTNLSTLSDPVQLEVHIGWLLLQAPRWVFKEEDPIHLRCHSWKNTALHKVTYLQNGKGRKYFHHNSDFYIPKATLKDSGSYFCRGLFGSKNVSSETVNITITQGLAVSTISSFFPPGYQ

Trastuzumab variant G237F/S298A/A330L/I332E (antibody)
Kd (FcγRIIIa (F) variant): 0.429 µM
Kd (FcγRIIb): 7.63 µM
